This is an account of results in publication PMC2661029.

Experiment [1] has as its target Fas death domain (UniProt P25445).
The target of experiment [2] is FADD death domain, His6-tagged (UniProt Q13158). Put plainly: pull-down.
Experiment [3] deals with Fas death domain (UniProt P25445). The experiment in a line: crystal structure.

Where two headings read alike, the source gives them in different places.

Chain of UniProt Q13158 (Q13158 93-191): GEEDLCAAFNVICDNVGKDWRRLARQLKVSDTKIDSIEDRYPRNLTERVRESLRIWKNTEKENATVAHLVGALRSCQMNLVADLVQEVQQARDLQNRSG

As to “Fas death domain (from UniProt P25445 230-314) (domain or fragment)”, the stoichiometry N with Fas death domain [1] and with Fas death domain [3] was 4 throughout. The same substance registered a concentration at which the complex dissociates in experiment [2] of 50 µM.
